# Values quoted from earlier work in article PMC7508936.
# Molecular target: galectin-1 (Homo sapiens) (UniProt P09382)
# Chain of UniProt P09382 (P09382 2-135): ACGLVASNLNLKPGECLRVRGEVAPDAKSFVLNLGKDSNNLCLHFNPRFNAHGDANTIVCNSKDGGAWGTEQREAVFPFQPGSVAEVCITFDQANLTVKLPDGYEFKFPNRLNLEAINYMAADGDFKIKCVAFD
substance,measurement,value
PSG1 (from UniProt P11464),Kd,130 nM
